These results are taken from US12104181B2, “Compositions and methods for treating viral infections targeting TRIM7” (THE BOARD OF REGENTS OF THE UNIVERSITY OF TEXAS SYSTEM, priority 2021, dated 2024).

The test relates to coxsackievirus B3 (CVB3-GFP). The class given is cell-based. Particulars: HeLa cells, replicate R1; for Percent Infected R1: GFP-positive cells within RFP-positive gate.

B1: RNF220: human RING type E3 ligase expressed from lentiviral vector (protein, UniProt Q5VTB9 1-566, looked up)
E3 ubiquitin-protein ligase …: MDLHRAAFKMENSSYLPNPLASPALMVLASTAEASRDASIPCQQPRPFGVPVSVDKDVHIPFTNGSYTFASMYHRQGGVPGTFANRDFPPSLLHLHPQFAPPNLDCTPISMLNHSGVGAFRPFASTEDRESYQSAFTPAKRLKNCHDTESPHLRFSDADGKEYDFGTQLPSSSPGSLKVDDTGKKIFAVSGLISDREASSSPEDRNDRCKKKAAALFDSQAPICPICQVLLRPSELQEHMEQELEQLAQLPSSKNSLLKDAMAPGTPKSLLLSASIKREGESPTASPHSSATDDLHHSDRYQTFLRVRANRQTRLNARIGKMKRRKQDEGQREGSCMAEDDAVDIEHENNNRFEEYEWCGQKRIRATTLLEGGFRGSGFIMCSGKENPDSDADLDVDGDDTLEYGKPQYTEADVIPCTGEEPGEAKEREALRGAVLNGGPPSTRITPEFSKWASDEMPSTSNGESSKQEAMQKTCKNSDIEKITEDSAVTTFEALKARVRELERQLSRGDRYKCLICMDSYSMPLTSIQCWHVHCEECWLRTLGAKKLCPQCNTITAPGDLRRIYL
Consider B1, for which the “Percent Infected R1” value is listed as 96.6% and the “Z score R1” value is listed as 0.1.

B2: RNF8: human RING type E3 ligase expressed from lentiviral vector (protein, UniProt O76064 1-485, looked up)
E3 ubiquitin-protein ligase …: MGEPGFFVTGDRAGGRSWCLRRVGMSAGWLLLEDGCEVTVGRGFGVTYQLVSKICPLMISRNHCVLKQNPEGQWTIMDNKSLNGVWLNRARLEPLRVYSIHQGDYIQLGVPLENKENAEYEYEVTEEDWETIYPCLSPKNDQMIEKNKELRTKRKFSLDELAGPGAEGPSNLKSKINKVSCESGQPVKSQGKGEVASTPSDNLDPKLTALEPSKTTGAPIYPGFPKVTEVHHEQKASNSSASQRSLQMFKVTMSRILRLKIQMQEKHEAVMNVKKQTQKGNSKKVVQMEQELQDLQSQLCAEQAQQQARVEQLEKTFQEEEQHLQGLEIAQGEKDLKQQLAQALQEHWALMEELNRSKKDFEAIIQAKNKELEQTKEEKEKMQAQKEEVLSHMNDVLENELQCIICSEYFIEAVTLNCAHSFCSYCINEWMKRKIECPICRKDIKSKTYSLVLDNCINKMVNNLSSEVKERRIVLIRERKAKRLF
modifications: lentiviral expression
notes: human RING type E3 ligase expressed from lentiviral vector
As for B2, the “Percent Infected R1” value was determined as 82.8% and the “Z score R1” value was −0.07.

B3: RNF150: human RING type E3 ligase expressed from lentiviral vector (protein, UniProt Q9ULK6 35-438, looked up)
RING finger protein 150: EKEEWYTAFVNITYAEPAPDPGAGAAGGGGAELHTEKTECGRYGEHSPKQDARGEVVMASSAHDRLACDPNTKFAAPTRGKNWIALIPKGNCTYRDKIRNAFLQNASAVVIFNVGSNTNETITMPHAGVEDIVAIMIPEPKGKEIVSLLERNITVTMYITIGTRNLQKYVSRTSVVFVSISFIVLMIISLAWLVFYYIQRFRYANARDRNQRRLGDAAKKAISKLQIRTIKKGDKETESDFDNCAVCIEGYKPNDVVRILPCRHLFHKSCVDPWLLDHRTCPMCKMNILKALGIPPNADCMDDLPTDFEGSLGGPPTNQITGASDTTVNESSVTLDPAVRTVGALQVVQDTDPIPQEGDVIFTTNSEQEPAVSSDSDISLIMAMEVGLSDVELSTDQDCEEVKS
As for B3, the “Percent Infected R1” value is reported as 91.1% and the “Z score R1” value amounted to 0.03.

B4: ZNRF1: human RING type E3 ligase expressed from lentiviral vector (protein, UniProt Q8ND25 2-227, looked up)
E3 ubiquitin-protein ligase …: GGKQSTAARSRGPFPGVSTDDSAVPPPGGAPHFGHYRTGGGAMGLRSRSVSSVAGMGMDPSTAGGVPFGLYTPASRGTGDSERAPGGGGSASDSTYAHGNGYQETGGGHHRDGMLYLGSRASLADALPLHIAPRWFSSHSGFKCPICSKSVASDEMEMHFIMCLSKPRLSYNDDVLTKDAGECVICLEELLQGDTIARLPCLCIYHKSCIDSWFEVNRSCPEHPAD
modifications: lentiviral expression
notes: as for B2
Turning to B4, the “Percent Infected R1” value was found to be 95.8% and the “Z score R1” value is 0.09.

B5: RNFT1: human RING type E3 ligase expressed from lentiviral vector (protein, UniProt Q5M7Z0 1-435, looked up)
E3 ubiquitin-protein ligase …: MPLFLLSLPTPPSASGHERRQRPEAKTSGSEKKYLRAMQANRSQLHSPPGTGSSEDASTPQCVHTRLTGEGSCPHSGDVHIQINSIPKECAENASSRNIRSGVHSCAHGCVHSRLRGHSHSEARLTDDTAAESGDHGSSSFSEFRYLFKWLQKSLPYILILSVKLVMQHITGISLGIGLLTTFMYANKSIVNQVFLRERSSKIQCAWLLVFLAGSSVLLYYTFHSQSLYYSLIFLNPTLDHLSFWEVFWIVGITDFILKFFFMGLKCLILLVPSFIMPFKSKGYWYMLLEELCQYYRTFVPIPVWFRYLISYGEFGNVTRWSLGILLALLYLILKLLEFFGHLRTFRQVLRIFFTQPSYGVAASKRQCSDVDDICSICQAEFQKPILLICQHIFCEECMTLWFNREKTCPLCRTVISDHINKWKDGATSSHLQIY
modifications: lentiviral expression
notes: as for B2
As to B5, the “Percent Infected R1” value is 95.2% and the “Z score R1” value came to 0.08.

B6: MARCH2: human RING type E3 ligase expressed from lentiviral vector (protein, UniProt Q9P0N8 1-246, looked up)
E3 ubiquitin-protein ligase …: MTTGDCCHLPGSLCDCSGSPAFSKVVEATGLGPPQYVAQVTSRDGRLLSTVIRALDTPSDGPFCRICHEGANGECLLSPCGCTGTLGAVHKSCLEKWLSSSNTSYCELCHTEFAVEKRPRPLTEWLKDPGPRTEKRTLCCDMVCFLFITPLAAISGWLCLRGAQDHLRLHSQLEAVGLIALTIALFTIYVLWTLVSFRYHCQLYSEWRKTNQKVRLKIREADSPEGPQHSPLAAGLLKKVAEETPV
Consider B6, for which the “Percent Infected R1” value amounted to 92.4% and the “Z score R1” value is on record as 0.05.

B7: RFPL2: human RING type E3 ligase expressed from lentiviral vector (protein, UniProt O75678 1-378, looked up)
Ret finger protein-like 2: MEVAELGFPETAVSQSRICLCAVLCGHWDFADMMVIRSLSLIRLEGVEGRDPVGGGNLTNKRPSCAPSPQDLSAQWKQLEDRGASSRRVDMAALFQEASSCPVCSDYLEKPMSLECGCAVCLKCINSLQKEPHGEDLLCCCSSMVSRKNKIRRNRQLERLASHIKELEPKLKKILQMNPRMRKFQVDMTLDANTANNFLLISDDLRSVRSGRIRQNRQDLAERFDVSVCILGSPRFTCGRHCWEVDVGTSTEWDLGVCRESVHRKGRIQLTTELGFWTVSLRDGGRLSATTVPLTFLFVDRKLQRVGIFLDMGMQNVSFFDAESGSHVYTFRSVSAEEPLRPFLAPSVPPNGDQGVLSICPLMNSGTTDAPVRPGEAK
modifications: lentiviral expression
notes: as for B2
In the case of B7, the “Percent Infected R1” value is 93.8% and the “Z score R1” value was determined as 0.07.

B8: MARCH5: human RING type E3 ligase expressed from lentiviral vector (protein, UniProt Q9NX47 1-278, looked up)
E3 ubiquitin-protein ligase …: MPDQALQQMLDRSCWVCFATDEDDRTAEWVRPCRCRGSTKWVHQACLQRWVDEKQRGNSTARVACPQCNAEYLIVFPKLGPVVYVLDLADRLISKACPFAAAGIMVGSIYWTAVTYGAVTVMQVVGHKEGLDVMERADPLFLLIGLPTIPVMLILGKMIRWEDYVLRLWRKYSNKLQILNSIFPGIGCPVPRIPAEANPLADHVSATRILCGALVFPTIATIVGKLMFSSVNSNLQRTILGGIAFVAIKGAFKVYFKQQQYLRQAHRKILNYPEQEEA
For B8, the “Percent Infected R1” value is 91.5% and the “Z score R1” value is on record as 0.04.

B9: RNF121: human RING type E3 ligase expressed from lentiviral vector (protein, UniProt Q9H920 2-327, looked up)
E3 ubiquitin ligase RNF121: AAVVEVEVGGGAAGERELDEVDMSDLSPEEQWRVEHARMHAKHRGHEAMHAEMVLILIATLVVAQLLLVQWKQRHPRSYNMVTLFQMWVVPLYFTVKLHWWRFLVIWILFSAVTAFVTFRATRKPLVQTTPRLVYKWFLLIYKISYATGIVGYMAVMFTLFGLNLLFKIKPEDAMDFGISLLFYGLYYGVLERDFAEMCADYMASTIGFYSESGMPTKHLSDSVCAVCGQQIFVDVSEEGIIENTYRLSCNHVFHEFCIRGWCIVGKKQTCPYCKEKVDLKRMFSNPWERPHVMYGQLLDWLRYLVAWQPVIIGVVQGINYILGLE
Consider B9, for which the “Percent Infected R1” value was determined as 84.1% and the “Z score R1” value is −0.06.

B10: RNF14: human RING type E3 ligase expressed from lentiviral vector (protein, UniProt Q9UBS8 1-474, looked up)
E3 ubiquitin-protein ligase …: MSSEDREAQEDELLALASIYDGDEFRKAESVQGGETRIYLDLPQNFKIFVSGNSNECLQNSGFEYTICFLPPLVLNFELPPDYPSSSPPSFTLSGKWLSPTQLSALCKHLDNLWEEHRGSVVLFAWMQFLKEETLAYLNIVSPFELKIGSQKKVQRRTAQASPNTELDFGGAAGSDVDQEEIVDERAVQDVESLSNLIQEILDFDQAQQIKCFNSKLFLCSICFCEKLGSECMYFLECRHVYCKACLKDYFEIQIRDGQVQCLNCPEPKCPSVATPGQVKELVEAELFARYDRLLLQSSLDLMADVVYCPRPCCQLPVMQEPGCTMGICSSCNFAFCTLCRLTYHGVSPCKVTAEKLMDLRNEYLQADEANKRLLDQRYGKRVIQKALEEMESKEWLEKNSKSCPCCGTPIEKLDGCNKMTCTGCMQYFCWICMGSLSRANPYKHFNDPGSPCFNRLFYAVDVDDDIWEDEVED
modifications: lentiviral expression
notes: as for B2
On to B10, for which the “Percent Infected R1” value amounted to 95.5% and the “Z score R1” value is recorded as 0.09.

B11: RNF144A: human RING type E3 ligase expressed from lentiviral vector (protein, UniProt P50876 1-292, looked up)
E3 ubiquitin-protein ligase …: MTTTRYRPTWDLALDPLVSCKLCLGEYPVEQMTTIAQCQCIFCTLCLKQYVELLIKEGLETAISCPDAACPKQGHLQENEIECMVAAEIMQRYKKLQFEREVLFDPCRTWCPASTCQAVCQLQDVGLQTPQPVQCKACRMEFCSTCKASWHPGQGCPETMPITFLPGETSAAFKMEEDDAPIKRCPKCKVYIERDEGCAQMMCKNCKHAFCWYCLESLDDDFLLIHYDKGPCRNKLGHSRASVIWHRTQVVGIFAGFGLLLLVASPFLLLATPFVLCCKCKCSKGDDDPLPT
Regarding B11, the “Percent Infected R1” value is 97.7% and the “Z score R1” value is reported as 0.12.

B12: MUL1: human RING type E3 ligase expressed from lentiviral vector (protein, UniProt Q969V5 1-352, looked up)
Mitochondrial ubiquitin …: MESGGRPSLCQFILLGTTSVVTAALYSVYRQKARVSQELKGAKKVHLGEDLKSILSEAPGKCVPYAVIEGAVRSVKETLNSQFVENCKGVIQRLTLQEHKMVWNRTTHLWNDCSKIIHQRTNTVPFDLVPHEDGVDVAVRVLKPLDSVDLGLETVYEKFHPSIQSFTDVIGHYISGERPKGIQETEEMLKVGATLTGVGELVLDNNSVRLQPPKQGMQYYLSSQDFDSLLQRQESSVRLWKVLALVFGFATCATLFFILRKQYLQRQERLRLKQMQEEFQEHEAQLLSRAKPEDRESLKSACVVCLSSFKSCVFLECGHVCSCTECYRALPEPKKCPICRQAITRVIPLYNS
modifications: lentiviral expression
notes: as for B2
As for B12, the “Percent Infected R1” value worked out at 80.1% and the “Z score R1” value is −0.11.
